test system: amino acid at a terminal position of a polypeptide; experiment: Amino acid binding preference of recognition proteins (Tables 1 and 2); details: Table 1, ClpS proteins; amino acid identity at a terminal position of a polypeptide; inferred from literature and/or demonstrated by the inventors
Source text: It should be appreciated that these sequences and other examples described herein are meant to be non-limiting, and recognition molecules in accordance with the application can include any homologs, variants thereof, or fragments thereof minimally containing domains or subdomains responsible for peptide recognition.

Molecule	Binding Pref.
PS432: ClpS protein, SEQ ID NO: 55 (protein) MIGVEARTSSAPELAIETEIRLAGLWHVIVINDPVNLMSYVVMVLRKIFGFDDTKARKHMLEVHENGRSIVWSGEREPAEAYANTLHQWHLSAVLERDETD	F, W
PS435: ClpS protein, SEQ ID NO: 58 (protein) MTLSVALGPDTQESTQTGTAVSTDTLTAPDIPWNLVIWNDPVNLMSYVSYVFQSYFGYSETKANKLMMEVHKKGRSIVAHGSKEQVEQHAVAMHGYGLWATVEKATGGNSGGGKSGGPGKGKGKRG	F, Y, W, L
PS430: ClpS protein, SEQ ID NO: 53 (protein) MQPFEETYTDVLDEVVDTDVHNLVVFNDDVNTFDHVIETLIDVCKHTPEQAEQCTLLIHYKGKCSVKNGSWEELVPMRNEICRRGISAEVLK	F, Y, W, L
PS546: PS372-homologous ClpS protein, SEQ ID NO: 60 (protein, listed as Planctomycetales bacterium) MSDTITLPGRPEVERDERTRRQPPYNVILHNDDDHTFEYVIVMLNQLFGYPPEKGYEMAKEVHLNGRVIVLTTSKEHAELKRDQIHAFGPDPFSSKDCKGSMSASIEPAY	I, L, V
PS426: ClpS protein, SEQ ID NO: 49 (protein) MSIIEKTQENVAILEKVSINHEIILYNDDVNTFDHVIETLIRVCNHEELQAEQCAILVHYTGKCAVKTGSFDELQPLCLALLDAGLSAEIT	F, Y, W, L
PS548: PS372-homologous ClpS protein, SEQ ID NO: 62 (protein, listed as Gemmataceae bacterium) MSDTITLPEEKTDVRTKRQPPYHVILLNDDDHTYQYVIYMLQTLFGHPPETGFKMAQEVDKTGRVIVDTTSLERAELKRDQIHAFGPDPYIERCKGSMSAMIEPSE	I, L, V
PS434: ClpS protein, SEQ ID NO: 57 (protein) MSRLPWKQEAKFAATVIIDFPDATLEAPTIEKKEATEQQIEMPWNVVVHNDPVNLMSYVTMVFQRVFGYPRERAEKHMLEVHHSGRSILWSGLRERAELYVQQLHGYLLLATIEKTV	F, Y, W, L
PS433: ClpS protein, SEQ ID NO: 56 (protein) MMSSLKECSIQALPSLDEKTKTEEDLSVPWKVIVLNDPVNLMSYVVMVFRKVFGYNENKATKHMMEVHQLGKSVLWTGQREEAECYAYQLQRWRLQTILEKDD	F, Y, W, L
PS425: ClpS protein, SEQ ID NO: 48 (protein) MTHYFSNILRDQESPKINPKELEQIDVLEEKEHQIILYNDDVNTFEHVIDCLVKICEHNYLQAEQCAYIVHHSGKCSVKTGSLDELVPKCNALLEEGLSAEVV	F, Y, W, L
PS427: ClpS protein, SEQ ID NO: 50 (protein) MSTKEKVKERVREKEAISFNNEIIVYNDDVNTFDHVIETLIRVCNHTPEQAEQCSLIVHYNGKCTVKTGSMDKLKPQCTQLLEAGLSAEIV	F, W
PS421: ClpS protein, SEQ ID NO: 44 (protein) MTTPNKRPEFEPEIGLEDEVGEPRKYKVLLHNDDYTTMDFVVQVLIEVFRKSETEATHIMLTIHEKGVGTCGIYPAEVAETKINEVHTRARREGFPLRASMEEV	F, Y, W, L
PS547: PS372-homologous ClpS protein, SEQ ID NO: 61 (protein, listed as Gemmataceae bacterium) MGFPTDFRQSIEISTPLGSQQPRFSNASSEPALADPVLVINPRIQPRYHVILLNDDDHTYRYVIEMMLIVFGHPPEKGFLIAKEVDKAGRAICLTTSLEHAEFKQEQVHAYGADPYFGPKCKGSMTAVLEPAE	I, L, V
PS424: ClpS protein, SEQ ID NO: 47 (protein) MSVETIEKRSTTRKLAPQYRVLLHNDDYNSMEYVVQVLMTSVPSITQPQAVNIMMEAHNSGLALVITCAQEHAEFYCETLKGHGLSSTIEPD	F, Y, W
PS423: ClpS protein, SEQ ID NO: 46 (protein) MAPTPAGAAVLDKQQQRRHKHASRYRVLLHNDPVNTMEYVVESLRQVVPQLSEQDAIAVMVEAHNTGVGLVIVCDIEPAEFYCEQLKTKGLTSSIEPED	F, Y, W
PS420: ClpS protein, SEQ ID NO: 43 (protein) MSDYSNQISQAGSGVAEDASITLPPERKVVFYNDDFTTMEFVVDVLVSIFNKSHSEAEELMQTVHQEGSSVVGVYTYDIAVSRTNLTIQAARKNGFPLRVEVE	F, Y, W, L
PS422: ClpS protein, SEQ ID NO: 45 (protein) MTQIKPQTIPDTDVISQTQSDWQMPDLYAVIMHNDDYTTMDFVVFLLNAVFDKPIEQAYQLMMQIHQTGRAVVAILPYEIAEMKVDEATSLAEQEQFPLFISIEQA	F, Y, W, L
PS371: ClpS protein, SEQ ID NO: 4 (protein) MATETIERPRTRDPGSGLGGHWLVIVLNDDHNTFDHVAKTLARVIPGVTVDDGYRFADQIHQRGQAIVWRGPKEPAEHYWEQLQDAGLSMAPLERH	F, Y, W, L
PS545: PS372-homologous ClpS protein, SEQ ID NO: 59 (protein, listed as Planctomycetales bacterium) MSEPMTLPAIPQPRLKERTQRQPPYNVILLNDDDHSYEYVIAMLQVLFGYPREKGYQMAKEVDSTGRVILLTTTREHAELKQEQIHAFGPDPLMARCQGSMTAVIEPAV	I, L, V

Continued, values first:

Binding Pref.	Molecule
I, L, V	PS558: PS372-homologous ClpS protein, SEQ ID NO: 72 (protein, listed as Planctomycetes bacterium) MTATTADPDRTTAEKTTKKARRSGQPKRQPRYHVILWNDNDHTYQYVVAMLQQLFGHPATTGLKLATEVDRTGRAVILTTTREHAELKRDQIHAFGADRLLARSKGAMSASIEPEAE
I, L, V	PS555: PS372-homologous ClpS protein, SEQ ID NO: 69 (protein, Planctomycetes bacterium RBG_16_64_12) MADSAQTGVAEPIQETLRRRKLRDDRRPKRQPPYHVILWNDNDHTYAYVVVMLMQLFGYPAEKGYQLASEVDTQGRAVVLTTTKEHAELKRDQIHAYGKDGLIEKCKGSMWATIEPAPGE
I, L, V	PS556: PS372-homologous ClpS protein, SEQ ID NO: 70 (protein, listed as Blastopirellula marina) MGDSNTSVAEPGEVTVVTTKPAPKKAKPKRQPKYHVVLWNDDDHTYEYVILMMHELFGHPVEKGFQIAKTVDADGRAICLTTTKEHAELKRDQIHAYGKDELIARCRGSMSSTIEPEC
I, L, V	PS559: PS372-homologous ClpS protein, SEQ ID NO: 73 (protein, listed as Planctomycetaceae bacterium) MNQAAISPNPDIKPNPSTHKKRASQRQPRYHVILWNDNDHTYHYVVTMLQKLFGHPPRTGIKMATEVDKKGKVIVLTTSREHAELKRDQIHAFGADKLIRRSKGAMAASIEPES
I, L, V	PS553: PS372-homologous ClpS protein, SEQ ID NO: 67 (protein, listed as Planctomycetes bacterium) MPASASAVTEPPVSLPEAAAPRPKDRPKRQPRYHVILWNDDDHTYQYVVAMLRQLFGHPPEKGFTLAKQVDKDGRVVVLTTTKEHAELKRDQIHAFGADRLLARSKGSMSASIEPEASTG
I, L, V	PS551: PS372-homologous ClpS protein, SEQ ID NO: 65 (protein, listed as Rubrobacter indicoceani) MPSAAPAKPKTKRQSRTQGMPPYNVVLLDDDDHTYGYVIEMLNKVFGHPPEKGFELATEVDKNGRVIVMTTNLEVAELKRDEVHAFGPDPLMPRSKGSMSAVVERAG
I, L, V	PS554: PS372-homologous ClpS protein, SEQ ID NO: 68 (protein, listed as Planctomycetes bacterium) MSDSASATVEVQADPPADATARSQPTPARSTGSKPKRQPRYHVVLWNDDDHTYEYVIAMLRRLFGIEPEKGFRIAEEVDQSGRAVVLTTTREHAELKRDQIHAFGADRLLARSKGSMSASIEPEA
I, L, V	PS549: PS372-homologous ClpS protein, SEQ ID NO: 63 (protein, listed as Planctomycetes bacterium) MSESITTLPKKSRRLKEEEEQKTKRQPPYNVILLNDDDHTFEYVIFMLQKLFGHPPERGMQMAKEVHTTGRVIVMTTALELAELKRDQIHAFGPDPLIDRCKGSMSATIEPAPI
I, L, V	PS552: PS372-homologous ClpS protein, SEQ ID NO: 66 (protein, Fimbriiglobus ruber) MSKTSTLPEVESESAQKLKYQPPYHVILLNDDDHSYVYVITMLKELFGHPEQKGYQLADAVDKQGRAIVFTTTREHAELKQEQIHAYGPDPTIPRCKGAMTAVIEPAE
I, L, V	PS550: PS372-homologous ClpS protein, SEQ ID NO: 64 (protein, listed as Planctomycetes bacterium) MPTFTEPEVVNDTRILPPYHVILLNDDDHTYEYVIHMLQTLFGHPQERGFQLAVEVDKKGKAIVFTTSKEHAEFKRDQIHAFGADPLSSKNCKGSMSAVIEPSF
